T1: GroES (E. coli, UniProt P0A6F9 1-97)
T1 sequence: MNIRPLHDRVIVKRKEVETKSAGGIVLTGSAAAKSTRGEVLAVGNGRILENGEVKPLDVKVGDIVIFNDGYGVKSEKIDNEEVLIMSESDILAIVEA

T2: GroES L27A mutant (E. coli, UniProt P0A6F9 1-97, L27A)
T2 sequence: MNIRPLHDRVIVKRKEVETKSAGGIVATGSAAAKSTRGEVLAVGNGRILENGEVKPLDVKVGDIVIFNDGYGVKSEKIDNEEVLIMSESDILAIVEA


What was measured:
GroES [1] = biological target: T1, GroES; assay: cell-based or functional assay
GroES L27A mutant = biological target: T2, GroES L27A mutant; assay: cell-based or functional assay
mHsp10 L33A mutant = mHsp10 L33A mutant (human, UniProt P61604 1-102, L33A); assay: cell-based or functional assay
GroES [2] = biological target: T1, GroES; assay: SPR; ProteOn XPR36; GroES or mHsp10 immobilised by amine coupling on a GLC chip; six concentrations of each mHsp60 variant injected; 20 mM Na-HEPES pH 7.5, 100 mM KCl, 10 mM MgCl2, 0.005% Tween, 2 mM ATP; apparent constants from equilibrium analysis; details: both partners purified
[3] = biological target: mitochondrial Hsp10, hexa-histidine-tagged (human, UniProt P61604 1-102); assay: cell-based or functional assay
Chain of mitochondrial Hsp10, hexa-histidine-tagged (P61604 whole entry): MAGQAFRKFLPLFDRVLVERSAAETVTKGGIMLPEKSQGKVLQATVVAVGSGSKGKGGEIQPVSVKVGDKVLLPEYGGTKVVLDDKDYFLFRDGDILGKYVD

Chain of mHsp10 L33A mutant (P61604 whole entry L33A): as the sequence (P61604 whole entry) above, with L33A counted along it

Row | Binder | inhibition of the chaperonin's steady-state ATPase activity by co-chaperonin (2:1 co-chaperonin:chaperonin) (GroES [1]) | inhibition of the chaperonin's steady-state ATPase activity by co-chaperonin (2:1 co-chaperonin:chaperonin) (GroES L27A mutant) | inhibition of the chaperonin's steady-state ATPase activity by co-chaperonin (2:1 co-chaperonin:chaperonin) (mHsp10 L33A mutant) | KA ratio (apparent KA relative to that of mHsp60 and mHsp10) (GroES [2]) | inhibition of the chaperonin's steady-state ATPase activity by co-chaperonin (2:1 co-chaperonin:chaperonin) [3]
1 | human mitochondrial Hsp60, wild type (natural protein, UniProt P10809 27-573, looked up) AKDVKFGADARALMLQGVDLLADAVAVTMGPKGRTVIIEQSWGSPKVTKDGVTVAKSIDLKDKYKNIGAKLVQDVANNTNEEAGDGTTTATVLARSIAKEGFEKISKGANPVEIRRGVMLAVDAVIAELKKQSKPVTTPEEIAQVATISANGDKEIGNIISDAMKKVGRKGVITVKDGKTLNDELEIIEGMKFDRGYISPYFINTSKGQKCEFQDAYVLLSEKKISSIQSIVPALEIANAHRKPLVIIAEDVDGEALSTLVLNRLKVGLQVVAVKAPGFGDNRKNQLKDMAIATGGAVFGEEGLTLNLEDVQPHDLGKVGEVIVTKDDAMLLKGKGDKAQIEKRIQEIIEQLDVTTSEYEKEKLNERLAKLSDGVAVLKVGGTSDVEVNEKKDRVTDALNATRAAVEEGIVLGGGCALLRCIPALDSLTPANEDQKIGIEIIKRTLKIPAMTIAKNAGVEGSLIVEKIMQSSSEVGYDAMAGDFVNMVEKGIIDPTKVVRTALLDAAGVASLLTTAEVVVTEIPKEEKDPGMGAMGGMGGGMGGGMF | 0% | 0% | 0% |  | 
2 | human mitochondrial Hsp60 E321K mutant (natural protein, UniProt P10809 27-573, looked up, human mitochondrial Hsp60 with E321K, isolated from an error-prone PCR library; also called E321K mHsp60; source: expressed in bacteria, purified as oligomers) AKDVKFGADARALMLQGVDLLADAVAVTMGPKGRTVIIEQSWGSPKVTKDGVTVAKSIDLKDKYKNIGAKLVQDVANNTNEEAGDGTTTATVLARSIAKEGFEKISKGANPVEIRRGVMLAVDAVIAELKKQSKPVTTPEEIAQVATISANGDKEIGNIISDAMKKVGRKGVITVKDGKTLNDELEIIEGMKFDRGYISPYFINTSKGQKCEFQDAYVLLSEKKISSIQSIVPALEIANAHRKPLVIIAEDVDGEALSTLVLNRLKVGLQVVAVKAPGFGDNRKNQLKDMAIATGGAVFGEEGLTLNLEDVQPHDLGKVGKVIVTKDDAMLLKGKGDKAQIEKRIQEIIEQLDVTTSEYEKEKLNERLAKLSDGVAVLKVGGTSDVEVNEKKDRVTDALNATRAAVEEGIVLGGGCALLRCIPALDSLTPANEDQKIGIEIIKRTLKIPAMTIAKNAGVEGSLIVEKIMQSSSEVGYDAMAGDFVNMVEKGIIDPTKVVRTALLDAAGVASLLTTAEVVVTEIPKEEKDPGMGAMGGMGGGMGGGMF | 30% | 0% | 26% | 1.43 ratio | 
3 | human mitochondrial Hsp60 R264K/E358K double mutant (natural protein, UniProt P10809 27-573, looked up, human mitochondrial Hsp60 with R264K and E358K, isolated from an error-prone PCR library; also called R264K/E358K mHsp60; source: expressed in bacteria, purified as oligomers) AKDVKFGADARALMLQGVDLLADAVAVTMGPKGRTVIIEQSWGSPKVTKDGVTVAKSIDLKDKYKNIGAKLVQDVANNTNEEAGDGTTTATVLARSIAKEGFEKISKGANPVEIRRGVMLAVDAVIAELKKQSKPVTTPEEIAQVATISANGDKEIGNIISDAMKKVGRKGVITVKDGKTLNDELEIIEGMKFDRGYISPYFINTSKGQKCEFQDAYVLLSEKKISSIQSIVPALEIANAHRKPLVIIAEDVDGEALSTLVLNKLKVGLQVVAVKAPGFGDNRKNQLKDMAIATGGAVFGEEGLTLNLEDVQPHDLGKVGEVIVTKDDAMLLKGKGDKAQIEKRIQEIIEQLDVTTSKYEKEKLNERLAKLSDGVAVLKVGGTSDVEVNEKKDRVTDALNATRAAVEEGIVLGGGCALLRCIPALDSLTPANEDQKIGIEIIKRTLKIPAMTIAKNAGVEGSLIVEKIMQSSSEVGYDAMAGDFVNMVEKGIIDPTKVVRTALLDAAGVASLLTTAEVVVTEIPKEEKDPGMGAMGGMGGGMGGGMF | 47% | 0% | 40% |  | 48%

Reference: publication PMC3514286 (PLoS ONE, 2012)
